Values quoted from earlier work as cited in PMC3734285, “Expression and Function of the Lipocalin-2 (24p3/NGAL) Receptor in Rodent and Human Intestinal Epithelia” (PLoS ONE, 2013).

System: megalin

B1: hNGAL: Human lipocalin-2/Neutrophil Gelatinase-Associated Lipocalin, high-affinity ligand of hNGAL-R, from Enzo Life Sciences (protein)
chain: QDSTSDLIPAPPLSKVPLQQNFQDNQFQGKWYVVGLAGNAILREDKDPQKMYATIYELKEDKSYNVTSVLFRKKKCDYWIRTFVPGCQPGEFTLGNIKSYPGLTSYLVRVVSTNYNQHAMVFFKKVSQNREYFKITLYGRTKELTSELKENFIRFSKSLGLPENHIVFPVPIDQCIDG
- fold lower affinity of megalin to hNGAL (versus hNGAL-R): ~1000 fold
